Patent publication US20200063132A1

Biological target: human Mannose 6-Phosphate Receptor (M6PR, also known as IGF2R), endogenous on HUVEC and hCMEC/D3 cells (human) (UniProt P11717)
Assay: cell-based or functional assay

Chain of human Mannose 6-Phosphate Receptor (M6PR, also known as IGF2R), endogenous on HUVEC and hCMEC/D3 cells (human) (P11717 41-2491): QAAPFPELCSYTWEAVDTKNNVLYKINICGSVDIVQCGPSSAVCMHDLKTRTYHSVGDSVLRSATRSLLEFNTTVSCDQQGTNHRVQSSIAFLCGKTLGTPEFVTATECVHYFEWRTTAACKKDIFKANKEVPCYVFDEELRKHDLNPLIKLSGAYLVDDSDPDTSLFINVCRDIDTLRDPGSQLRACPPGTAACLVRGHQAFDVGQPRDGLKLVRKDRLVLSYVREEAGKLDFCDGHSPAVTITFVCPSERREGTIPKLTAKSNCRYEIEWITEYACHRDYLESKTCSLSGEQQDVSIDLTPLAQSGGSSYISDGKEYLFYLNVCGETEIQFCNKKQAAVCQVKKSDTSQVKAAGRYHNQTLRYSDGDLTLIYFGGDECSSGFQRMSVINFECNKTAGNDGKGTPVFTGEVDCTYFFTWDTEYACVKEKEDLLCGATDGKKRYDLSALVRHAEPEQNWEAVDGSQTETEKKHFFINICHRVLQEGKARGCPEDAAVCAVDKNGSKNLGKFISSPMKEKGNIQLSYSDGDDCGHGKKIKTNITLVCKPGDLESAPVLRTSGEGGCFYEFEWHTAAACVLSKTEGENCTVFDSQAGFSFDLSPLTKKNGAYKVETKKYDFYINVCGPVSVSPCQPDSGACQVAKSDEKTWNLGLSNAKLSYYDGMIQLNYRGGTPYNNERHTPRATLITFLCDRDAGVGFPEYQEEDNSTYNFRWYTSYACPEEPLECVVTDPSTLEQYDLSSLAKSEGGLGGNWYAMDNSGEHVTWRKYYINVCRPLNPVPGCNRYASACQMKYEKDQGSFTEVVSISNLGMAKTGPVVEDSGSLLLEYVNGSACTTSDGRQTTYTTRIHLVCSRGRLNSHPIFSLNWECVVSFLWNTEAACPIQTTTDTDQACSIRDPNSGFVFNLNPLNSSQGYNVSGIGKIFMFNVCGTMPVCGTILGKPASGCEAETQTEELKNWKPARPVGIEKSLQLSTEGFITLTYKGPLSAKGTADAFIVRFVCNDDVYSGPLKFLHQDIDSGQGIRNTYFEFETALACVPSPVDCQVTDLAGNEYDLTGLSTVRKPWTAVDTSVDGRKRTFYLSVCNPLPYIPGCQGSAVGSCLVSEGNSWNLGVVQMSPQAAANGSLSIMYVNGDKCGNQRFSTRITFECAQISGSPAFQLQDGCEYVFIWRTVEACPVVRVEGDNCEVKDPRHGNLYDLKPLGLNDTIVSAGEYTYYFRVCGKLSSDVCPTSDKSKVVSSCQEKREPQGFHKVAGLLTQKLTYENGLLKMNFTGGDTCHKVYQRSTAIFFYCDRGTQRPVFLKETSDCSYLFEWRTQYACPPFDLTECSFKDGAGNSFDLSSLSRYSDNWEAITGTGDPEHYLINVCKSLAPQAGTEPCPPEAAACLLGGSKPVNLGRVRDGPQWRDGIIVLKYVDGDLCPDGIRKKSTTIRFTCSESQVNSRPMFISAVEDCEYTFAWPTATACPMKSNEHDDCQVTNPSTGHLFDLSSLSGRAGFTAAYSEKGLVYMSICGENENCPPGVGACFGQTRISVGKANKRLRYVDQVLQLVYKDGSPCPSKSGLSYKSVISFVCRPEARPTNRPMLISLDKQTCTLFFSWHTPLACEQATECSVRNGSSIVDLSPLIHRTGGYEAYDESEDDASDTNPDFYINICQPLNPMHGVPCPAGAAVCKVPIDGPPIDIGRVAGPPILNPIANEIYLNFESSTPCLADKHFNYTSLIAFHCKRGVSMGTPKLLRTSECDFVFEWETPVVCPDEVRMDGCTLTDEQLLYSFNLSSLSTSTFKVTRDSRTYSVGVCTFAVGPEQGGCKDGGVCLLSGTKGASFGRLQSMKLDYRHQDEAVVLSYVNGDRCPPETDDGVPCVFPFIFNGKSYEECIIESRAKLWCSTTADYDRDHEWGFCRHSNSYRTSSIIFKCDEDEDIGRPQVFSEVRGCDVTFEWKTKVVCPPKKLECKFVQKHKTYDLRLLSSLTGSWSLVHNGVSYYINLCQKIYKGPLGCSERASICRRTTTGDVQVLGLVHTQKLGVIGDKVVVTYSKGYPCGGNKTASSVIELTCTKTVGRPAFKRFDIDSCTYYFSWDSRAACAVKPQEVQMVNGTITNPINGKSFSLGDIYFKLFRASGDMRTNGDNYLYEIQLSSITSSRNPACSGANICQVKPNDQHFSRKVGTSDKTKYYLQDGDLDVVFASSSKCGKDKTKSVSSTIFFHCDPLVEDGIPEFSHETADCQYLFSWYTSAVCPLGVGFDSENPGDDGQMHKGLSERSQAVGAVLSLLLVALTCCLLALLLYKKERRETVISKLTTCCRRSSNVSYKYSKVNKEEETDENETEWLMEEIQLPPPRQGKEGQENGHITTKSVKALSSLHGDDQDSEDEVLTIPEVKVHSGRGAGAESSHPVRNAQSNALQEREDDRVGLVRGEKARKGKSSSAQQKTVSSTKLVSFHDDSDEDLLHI

“IDUA-myc fusion protein (human α-L-iduronidase with myc tag, from conditioned medium of HEK 293-based cells stably overexpressing human IDUA cDNA) (from UniProt P35475 28-653) (enzyme)” was tested, and the IC50 of the M6P inhibitor (mannose 6-phosphate, a small molecule) on uptake of IDUA-myc by HUVEC, 1 h, intracellular IDUA activity was 348 µM and the IC50 of the M6P inhibitor (mannose 6-phosphate, a small molecule) on uptake of IDUA-myc by hCMEC/D3 cells, 1 h, intracellular IDUA activity was 57.2 µM.
